Experimental data taken from the supplement of paper PMC10567573.

B1: NET1 (parent)
chain: PTPAKRRSSALWSEMLDITMKESL
B2: MYBL2 (parent)
chain: IAKHLKGRLGKQCRERWHNHLNPE

Variants of: B1
Test: protein stability index of a GFP-peptide fusion (GPS, HEK-293T) (PSI 1-6); higher = more stable
Conditions: c terminus: a fixed tail appended
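Further: lentivirally expressed fusions sorted by FACS into six bins by GFP to DsRed ratio, PSI derived from sequencing read proportions per bin multiplied by bin number.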

Protein stability index, by site and new letter:
E22: N 2.19; F 3.11; W 3.09; C 1.52; M 2.6; T 3.06; G 1.96; Y 2.82; Q 2.57; R 3.35; P 1.72; S 2.56; H 1.5; K 1.48; D 2.1; A 1
L24: D 2.48; A 2.59; I 2.29; Y 1.88; G 2.47; Q 1.92; K 3.05; F 1.89; M 2.28; E 1.31; V 2.33; C 2.6; N 3.01; T 2.2; W 1.36; P 2.85
S23: N 2.48; I 1.89; L 2.66; C 1.4; M 1.33; G 2.33; P 2.63; V 1.88; D 1.93; Y 1.9; K 2.79; T 1.89; W 3.71; E 2.14; Q 2.47; F 1.69
M15: Y 1.96; G 3.83; N 3.13; H 2.38; V 2.9; K 2.82; L 2.91; P 4.32; F 2.04; D 3.91; W 2.05; E 4.77; C 2.38; Q 3; I 2.07
K21: S 2.73; T 2.21; H 2.25; F 1.17; D 3.04; N 3.67; V 2.5; R 2.33; I 2.06; E 2.8; A 2.38; Y 2.03
L16: H 2.85; Y 2.19; G 2.33; I 2.84; M 2.2; P 2.38; N 3.84; Q 2.92; E 3.67; S 3.17; F 2.1; T 2.85; A 2.59
D17: P 2.83; I 2.31; F 2; N 2.75; Y 2.83; E 2.07; G 2.25; L 2.07; K 1.25; Q 1.85; M 1.26; R 2.27; A 1.95; C 1.53; T 1.92
E14: T 1.93; N 2.11; Y 2.2; K 2.87; P 3.15; S 2.35; W 1.69; V 1.25; I 3.13; H 2.2; R 2.43; L 1.5
T19: R 1.81; G 2.36; Q 1.93; P 1.7; N 3.39; H 2.43; D 2.37; L 1.66; I 1.04; W 1.61; A 1.74; E 1.43
M20: H 2.45; Y 2.64; D 2.58; F 1.88; G 3.44; L 1.55; K 2.75; N 2.74; S 3.71; V 2.73; A 2.24; E 2.17; R 3.42; T 2.76; I 2.09; P 3.25; W 1.72
I18: A 2.12; T 2.62; R 2.84; E 2.9; S 2.77; C 2; F 2.46; H 2.53; D 3.39; W 1.91; V 3.12; G 3.36; Y 2.97; N 2.41

Variants of: B2
Test: as above
Conditions: c terminus: a fixed tail appended

Protein stability index, by site and new letter:
K3: P 1.93; Q 2.96; D 2.3; H 2.32; W 1.95; S 1.44; E 2; I 1.51; R 2.03; C 2.25; F 2.46; Y 2.17; G 1.79; A 2.84; T 1.81; V 2.9; N 1.8; L 2.34; M 1.81
L9: N 2.31; V 2.18; S 2.55; P 2.28; T 1.99; A 1.76; K 2.5; Y 2.24; E 2.73; W 1.67; R 2.72; C 2.08; M 2.45; G 2.45; Q 2.06; D 3.01; I 1.43; H 2; F 1.7
I1: R 2.1; H 2.19; T 2.64; E 2.53; P 2.6; S 2.17; N 2.45; Y 1.56; L 1.67; D 2.06; Q 2.64; V 2.54; G 2.4; K 2.18; C 1.49; A 2.37; W 1.36; M 2.58; F 2.7
K6: M 1.97; A 1.7; W 1.27; Y 1.77; P 2.03; Q 1.56; L 4.25; R 1.67; H 1.91; S 1.81; G 1.67; N 2.21; D 2.46; V 2.45; E 1.55; F 2.94; T 2.21; C 2.59
G7: V 2.45; W 2.74; H 3.17; Q 1.65; M 1.77; N 1.82; P 2.14; T 2.25; S 2.39; K 1.77; A 2.94; F 2.25; L 2.71; D 2.61; R 2.2; Y 2.14; C 1.6; I 2.31; E 1.88
H4: R 2.17; A 2.33; G 2.2; Y 4.85; N 1.57; P 2.15; D 2.74; E 2.04; S 1.73; L 2.33; C 3.5; Q 2.27; V 3.2; W 1.76; T 1.87; F 2.52; K 2.12; M 1.83
A2: H 2.04; E 2.16; K 2.12; L 3.74; T 2.37; I 1.59; V 1.53; Y 1.76; M 1.6; C 1.8; R 2.53; Q 2.03; D 2.15; P 1.75; N 2.2; W 1.64; S 2.1; G 1.95
G10: C 1.74; L 1.94; I 2.44; H 1.35; N 2.52; A 1.92; K 1.61; F 3.24; D 1.83; E 1.48
L5: R 2.7; F 1.67; A 2.18; W 1.84; K 2.49; Q 1.87; N 2.38; T 2.35; E 2.49; H 2.51; P 2.07; C 1.9; V 2.18; G 2.04; I 1.75; S 2.29; M 1.72; D 2.7; Y 1.86
R8: N 1.61; M 1.74; C 2.23; P 2.65; H 1.91; S 1.8; Y 1.9; V 1.6; E 2.14; K 2.11; W 2.73; A 1.97; G 1.81; I 1.53; D 2.41; Q 1.76; T 1.63
